In paper PMC7870876:

Target: Synaptophysin (rat (endogenous in rat brain synaptic vesicles)), P07825
Test: cross-linking; BS3 cross-linked synaptic vesicle proteins, gel electrophoresis, western blot with antibodies against Synaptobrevin-2 and Synaptophysin
Details: remark: other sources report otherwise

stoichiometry N: 2
B1: Synaptophysin, P07825 1-307 (natural protein)
chain: MDVVNQLVAGGQFRVVKEPLGFVKVLQWVFAIFAFATCGSYTGELRLSVECANKTESALNIEVEFEYPFRLHQVYFDAPSCVKGGTTKIFLVGDYSSSAEFFVTVAVFAFLYSMGALATYIFLQNKYRENNKGPMMDFLATAVFAFMWLVSSSAWAKGLSDVKMATDPENIIKEMPMCRQTGNTCKELRDPVTSGLNTSVVFGFLNLVLWVGNLWFVFKETGWAAPFMRAPPGAPEKQPAPGDAYGDAGYGQGPGGYGPQDSYGPQGGYQPDYGQPASGGGGYGPQGDYGQQGYGQQGAPTSFSNQM
